Assay results reported in paper PMC8277577.

Molecular target: C144 (human)
Experiment: BLI

SARS-CoV-2 receptor binding domain (RBD) (from UniProt P0DTC2 319-539) (domain or fragment)
Kd: 149 nM
